Measured values published in PMC4895335.

biological target: T1, Ms4022 (TetR family regulator) (Mycobacterium smegmatis mc2 155) (UniProt A0QZH0); assay: EMSA; settings: EMSA: 50 mM Tris-HCl pH 7.5, 10 mM MgCl2, 50 mM NaCl, 4 C 30 min, 5% native PAGE in 0.5x TBE at room temperature; footprinting: binding as in EMSA, DNase I at …
T1 sequence: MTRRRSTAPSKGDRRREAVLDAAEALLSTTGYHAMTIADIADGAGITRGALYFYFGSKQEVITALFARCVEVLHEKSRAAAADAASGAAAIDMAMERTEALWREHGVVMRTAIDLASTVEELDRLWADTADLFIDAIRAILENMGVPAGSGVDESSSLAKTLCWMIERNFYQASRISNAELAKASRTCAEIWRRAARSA

| Sequence | binding |
| --- | --- |
| ACGCCGATACTTGACGGAGTGCTTATTTTTTTCGACACTGTGCTTATTGAGATGGCGGGGCATGGAGGCAGCGATGCGAACAATCTTGATCGCCGGAACGAGCGGCGACTTCCGGCGAGCATTCGCCGAGGCGGTTGCGCCTTGGCGTGCACACAGTCGCATCCCCGACCTCGCCGACGCCGCTGTCGGCCCATCCGGGAAGGACCATCCGTGACGAAATCCA (double strand) [Ms4022p s1] | binds |
| GCCTTACGGCACAACGACTTCGGGCTGGCGGCCCGGCGTCGTCGCATCGCGCACGTCCGGTCGGACGCCCCCAGTCGGCCCCTCCGGACTAGGCGTCCACGCCGATACTTGACGGAGTGCTTATTTTTTTCGACACTGTGCTTATTGAGATGGCGGGGCATGGAGGCAGCGATGCGAACAATCTTGATCGCCGGAACGAGCGGCGACTTCCGGCGAGCATTCGCCGAGGCGGTT (double strand) [Ms4022p s2] | binds |
| GTCGATCTCCGTCGGGTCAACGGGCGAACTTCCCTGTCACGGCAGTCAGGTTAGCACGAATCCACACAGTGCTGATTTTTATCAGCTTGTTGTCGGCGACGCGGTCACCCGTTTCGGTCGCGAGGTGTCTGATCGGTCGCCATCGGTTATGGCCTTACGGCACAACGACTTCGGGCTGGCGGCCCGGCGTCGTCGCATCGCGCACGTCCGGTCGGACGCCCCCAGTCGGCCCCTCCGGACTAGGCGTCCACGCCGATACTTGACGGAGT (double strand) [Ms4022p s3] | binds |
